Source: paper PMC9352680, “A comprehensive thermodynamic model for RNA binding by the Saccharomyces cerevisiae Pumilio protein PUF4”

Biological target: T1, PUF4 RNA-binding domain (Saccharomyces cerevisiae, UniProt P25339 537-888)
T1 sequence: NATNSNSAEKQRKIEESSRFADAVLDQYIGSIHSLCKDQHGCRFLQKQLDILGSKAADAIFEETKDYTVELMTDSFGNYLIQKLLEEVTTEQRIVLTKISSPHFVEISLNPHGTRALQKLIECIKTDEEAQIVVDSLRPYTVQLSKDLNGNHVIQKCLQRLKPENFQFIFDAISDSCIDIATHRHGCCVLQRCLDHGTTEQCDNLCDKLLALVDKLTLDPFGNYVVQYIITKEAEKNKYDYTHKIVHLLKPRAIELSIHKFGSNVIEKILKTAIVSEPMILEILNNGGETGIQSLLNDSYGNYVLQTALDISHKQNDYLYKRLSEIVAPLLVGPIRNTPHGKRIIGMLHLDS
Experiment: Mg; RNA-MaP; 20 mM Na-HEPES pH 7.4, 30 mM KOAc, 0.75 mM MgCl2, 0.1% Tween-20, 5% glycerol, 0.1 mg/mL BSA, 2 mM DTT; 25 C; 0.0125-409.6 nM protein
Settings: tags: N-His6-TEV cleaved; C-SNAP kept, Cy3B-labelled; label: tethered on chip by stalled RNA polymerase

B1: Ic_S4_P4E.1_K4.1_C4.1_H4.1_A4.1_[T5G]_[A6T]_[T7A]_F4.1_[T8A]_T4.1 (ssRNA)
RNA: UUUGACAACUGAUCGUUCUUUCUUGUAGUAAAUUCUUUCUCGAUCAGUUGUCUUU
Kd: 0.445 µM

B2: Ic_S4_P4E.1_K4.1_C4.1_H4.1_A4.1_[T5G]_[A6T]_[T7A]_F4.1_[A9G]_T4.1 (ssRNA)
RNA: UUUGACAACUGAUCGUUCUUUCUUGUAGUAUGUUCUUUCUCGAUCAGUUGUCUUU
Kd: 0.0373 µM

B3: Ic_S4_P4E.1_K4.1_C4.1_H4.1_A4.1_[T5G]_[A6T]_[T7A]_F4.1_[A9C]_T4.1 (ssRNA)
RNA: UUUGACAACUGAUCGUUCUUUCUUGUAGUAUCUUCUUUCUCGAUCAGUUGUCUUU
Kd: 0.173 µM

B4: Ic_S4_P4E.1_K4.1_C4.1_H4.1_A4.1_[T5G]_[A6T]_[T7A]_F4.1_[A9T]_T4.1 (ssRNA)
RNA: UUUGACAACUGAUCGUUCUUUCUUGUAGUAUUUUCUUUCUCGAUCAGUUGUCUUU
Kd: 0.0406 µM

B5: Ic_S4_P4E.1_K4.1_C4.1_H4.1_A4.1_[T5G]_[A6T]_[T7A]_F4.1_T4.1 (ssRNA)
RNA: UUUGACAACUGAUCGUUCUUUCUUGUAGUAUAUUCUUUCUCGAUCAGUUGUCUUU
Kd: 0.00295 µM

B6: Ib_S1_P4E.1_K4.1_C4.1_H4.1_[A4C]_A4.1_F4.1_[A9T]_T4.1 (ssRNA)
RNA: UCUCUUUGUCUAUUUUCUCUU
Kd: 0.807 µM

B7: Ic_S4_P4E.1_K4.1_C4.1_H4.1_A4.1_[T5G]_[A6T]_F4.1_[T8G]_[A9T]_T4.1 (ssRNA)
RNA: UUUGACAACUGAUCGUUCUUUCUUGUAGUUGUUUCUUUCUCGAUCAGUUGUCUUU
Kd: 0.291 µM

B8: Ic_S4_P4E.1_K4.1_C4.1_H4.1_A4.1_[T5G]_[A6T]_F4.1_[T8C]_[A9T]_T4.1 (ssRNA)
RNA: UUUGACAACUGAUCGUUCUUUCUUGUAGUUCUUUCUUUCUCGAUCAGUUGUCUUU
Kd: 0.096 µM

B9: Ic_S4_P4E.1_K4.1_C4.1_H4.1_A4.1_[T5G]_[A6T]_F4.1_[T8A]_[A9C]_T4.1 (ssRNA)
RNA: UUUGACAACUGAUCGUUCUUUCUUGUAGUUACUUCUUUCUCGAUCAGUUGUCUUU
Kd: 0.875 µM

B10: Ic_S4_P4E.1_K4.1_C4.1_H4.1_A4.1_[T5G]_[A6T]_F4.1_[A9G]_T4.1 (ssRNA)
RNA: UUUGACAACUGAUCGUUCUUUCUUGUAGUUUGUUCUUUCUCGAUCAGUUGUCUUU
Kd: 0.065 µM

B11: Ic_S4_P4E.1_K4.1_C4.1_H4.1_A4.1_[T5G]_[A6T]_F4.1_[A9T]_T4.1 (ssRNA)
RNA: UUUGACAACUGAUCGUUCUUUCUUGUAGUUUUUUCUUUCUCGAUCAGUUGUCUUU
Kd: 0.0558 µM

B12: Ic_S4_P4E.1_K4.1_C4.1_H4.1_A4.1_[T5C]_[A6G]_[T7G]_F4.1_[T8C]_[A9T]_T4.1 (ssRNA)
RNA: UUUGACAACUGAUCGUUCUUUCUUGUACGGCUUUCUUUCUCGAUCAGUUGUCUUU
Kd: 0.487 µM

B13: Ic_S4_P4E.1_K4.1_C4.1_H4.1_A4.1_[T5C]_[A6G]_[T7G]_F4.1_[A9C]_T4.1 (ssRNA)
RNA: UUUGACAACUGAUCGUUCUUUCUUGUACGGUCUUCUUUCUCGAUCAGUUGUCUUU
Kd: 0.514 µM

B14: Ic_S4_P4E.1_K4.1_C4.1_H4.1_A4.1_[T5C]_[A6G]_[T7G]_F4.1_[A9T]_T4.1 (ssRNA)
RNA: UUUGACAACUGAUCGUUCUUUCUUGUACGGUUUUCUUUCUCGAUCAGUUGUCUUU
Kd: 0.158 µM

B15: Ic_S4_P4E.1_K4.1_C4.1_H4.1_A4.1_[T5C]_[A6G]_[T7C]_F4.1_[T8G]_[A9G]_T4.1 (ssRNA)
RNA: UUUGACAACUGAUCGUUCUUUCUUGUACGCGGUUCUUUCUCGAUCAGUUGUCUUU
Kd: 1.8 µM

B16: Ic_S4_P4E.1_K4.1_C4.1_H4.1_A4.1_[T5C]_[A6G]_[T7C]_F4.1_[T8G]_[A9T]_T4.1 (ssRNA)
RNA: UUUGACAACUGAUCGUUCUUUCUUGUACGCGUUUCUUUCUCGAUCAGUUGUCUUU
Kd: 0.4 µM

B17: Ia_S1_P4E.1_K4.1_C4.1_H4.1_[T3C]_A4.1_F4.1_T4.1 (ssRNA)
RNA: UCUCUUUGCAUAUUAUCUCUU
Kd: 0.0765 µM

B18: Ib_S1_P4E.1_K4.1_C4.1_H4.1_[A4T]_A4.1_F4.1_[A9T]_T4.1 (ssRNA)
RNA: UCUCUUUGUUUAUUUUCUCUU
Kd: 0.353 µM

B19: Ic_S4_P4E.1_K4.1_C4.1_H4.1_A4.1_[T5C]_[A6G]_[T7C]_F4.1_[T8C]_[A9C]_T4.1 (ssRNA)
RNA: UUUGACAACUGAUCGUUCUUUCUUGUACGCCCUUCUUUCUCGAUCAGUUGUCUUU
Kd: 0.142 µM

B20: Ic_S4_P4E.1_K4.1_C4.1_H4.1_A4.1_[T5C]_[A6G]_[T7C]_F4.1_[T8A]_[A9G]_T4.1 (ssRNA)
RNA: UUUGACAACUGAUCGUUCUUUCUUGUACGCAGUUCUUUCUCGAUCAGUUGUCUUU
Kd: 1.47 µM

B21: Ic_S4_P4E.1_K4.1_C4.1_H4.1_A4.1_[T5C]_[A6G]_[T7C]_F4.1_[T8A]_T4.1 (ssRNA)
RNA: UUUGACAACUGAUCGUUCUUUCUUGUACGCAAUUCUUUCUCGAUCAGUUGUCUUU
Kd: 0.657 µM

B22: Ic_S4_P4E.1_K4.1_C4.1_H4.1_A4.1_[T5C]_[A6G]_[T7C]_F4.1_T4.1 (ssRNA)
RNA: UUUGACAACUGAUCGUUCUUUCUUGUACGCUAUUCUUUCUCGAUCAGUUGUCUUU
Kd: 0.00222 µM

B23: Ic_S4_P4E.1_K4.1_C4.1_H4.1_A4.1_[T5C]_[A6G]_[T7A]_F4.1_[T8C]_[A9C]_T4.1 (ssRNA)
RNA: UUUGACAACUGAUCGUUCUUUCUUGUACGACCUUCUUUCUCGAUCAGUUGUCUUU
Kd: 0.994 µM

B24: Ic_S4_P4E.1_K4.1_C4.1_H4.1_A4.1_[T5C]_[A6G]_[T7A]_F4.1_[T8C]_T4.1 (ssRNA)
RNA: UUUGACAACUGAUCGUUCUUUCUUGUACGACAUUCUUUCUCGAUCAGUUGUCUUU
Kd: 0.436 µM

B25: Ic_S4_P4E.1_K4.1_C4.1_H4.1_A4.1_[T5C]_[A6G]_F4.1_[T8G]_[A9T]_T4.1 (ssRNA)
RNA: UUUGACAACUGAUCGUUCUUUCUUGUACGUGUUUCUUUCUCGAUCAGUUGUCUUU
Kd: 0.0337 µM
